Measured values reported in paper PMC2688778 (Structure (London, England : 1993), 2009).

Experiments:
Experiment in all cases: fluorescence anisotropy
RecE564 E729A = target: T1, RecE564 E729A (Escherichia coli K12, UniProt P15032 564-866, E729A)
T1 sequence: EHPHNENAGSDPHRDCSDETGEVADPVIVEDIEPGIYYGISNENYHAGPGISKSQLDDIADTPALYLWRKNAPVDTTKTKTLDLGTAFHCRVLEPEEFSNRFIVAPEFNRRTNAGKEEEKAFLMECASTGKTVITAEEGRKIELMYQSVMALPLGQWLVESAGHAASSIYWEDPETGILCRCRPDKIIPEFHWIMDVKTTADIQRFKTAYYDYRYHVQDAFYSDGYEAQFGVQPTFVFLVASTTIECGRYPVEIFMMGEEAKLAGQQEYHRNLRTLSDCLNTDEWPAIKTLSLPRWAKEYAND

RecE564 del858-866 = target: T2, RecE564 del858-866 (Escherichia coli K12, UniProt P15032 564-857, del858-866)
T2 sequence: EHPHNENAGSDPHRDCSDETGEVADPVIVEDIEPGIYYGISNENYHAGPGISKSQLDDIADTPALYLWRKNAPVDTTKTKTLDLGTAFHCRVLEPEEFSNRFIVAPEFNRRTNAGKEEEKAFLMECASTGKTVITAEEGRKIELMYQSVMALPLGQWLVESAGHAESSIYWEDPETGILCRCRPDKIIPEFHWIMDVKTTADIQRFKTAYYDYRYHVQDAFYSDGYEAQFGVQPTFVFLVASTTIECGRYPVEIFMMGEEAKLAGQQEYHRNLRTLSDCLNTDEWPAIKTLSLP

RecE564 Y608A = target: T3, RecE564 Y608A (Escherichia coli K12, UniProt P15032 564-866, Y608A)
T3 sequence: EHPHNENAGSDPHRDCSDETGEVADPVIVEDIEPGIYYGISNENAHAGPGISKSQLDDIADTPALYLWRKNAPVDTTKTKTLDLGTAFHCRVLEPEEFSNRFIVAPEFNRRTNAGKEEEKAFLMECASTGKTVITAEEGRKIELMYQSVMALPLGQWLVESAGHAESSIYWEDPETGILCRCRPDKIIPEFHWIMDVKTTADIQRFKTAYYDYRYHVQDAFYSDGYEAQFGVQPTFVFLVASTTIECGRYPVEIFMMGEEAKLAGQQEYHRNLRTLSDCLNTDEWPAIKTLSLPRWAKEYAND

RecE564 F661A = target: T4, RecE564 F661A (Escherichia coli K12, UniProt P15032 564-866, F661A)
T4 sequence: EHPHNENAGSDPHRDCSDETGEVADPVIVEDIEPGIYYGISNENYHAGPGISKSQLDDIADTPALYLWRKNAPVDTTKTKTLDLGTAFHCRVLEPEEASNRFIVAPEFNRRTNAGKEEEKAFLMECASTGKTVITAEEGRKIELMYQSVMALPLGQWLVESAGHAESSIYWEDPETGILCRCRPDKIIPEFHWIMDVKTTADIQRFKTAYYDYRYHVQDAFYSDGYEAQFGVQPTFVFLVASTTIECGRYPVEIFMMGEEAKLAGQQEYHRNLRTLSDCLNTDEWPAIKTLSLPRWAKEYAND

RecE564 Y778A = target: T5, RecE564 Y778A (Escherichia coli K12, UniProt P15032 564-866, Y778A)
T5 sequence: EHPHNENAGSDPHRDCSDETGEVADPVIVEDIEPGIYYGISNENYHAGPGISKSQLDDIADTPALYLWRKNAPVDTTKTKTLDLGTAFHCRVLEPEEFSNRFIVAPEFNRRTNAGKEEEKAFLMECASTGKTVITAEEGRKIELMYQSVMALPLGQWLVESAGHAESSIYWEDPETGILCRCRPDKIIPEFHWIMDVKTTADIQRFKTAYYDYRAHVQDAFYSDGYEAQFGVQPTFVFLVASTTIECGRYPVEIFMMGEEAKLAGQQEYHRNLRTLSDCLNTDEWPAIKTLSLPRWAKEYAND

RecE564 S615A = target: T6, RecE564 S615A (Escherichia coli K12, UniProt P15032 564-866, S615A)
T6 sequence: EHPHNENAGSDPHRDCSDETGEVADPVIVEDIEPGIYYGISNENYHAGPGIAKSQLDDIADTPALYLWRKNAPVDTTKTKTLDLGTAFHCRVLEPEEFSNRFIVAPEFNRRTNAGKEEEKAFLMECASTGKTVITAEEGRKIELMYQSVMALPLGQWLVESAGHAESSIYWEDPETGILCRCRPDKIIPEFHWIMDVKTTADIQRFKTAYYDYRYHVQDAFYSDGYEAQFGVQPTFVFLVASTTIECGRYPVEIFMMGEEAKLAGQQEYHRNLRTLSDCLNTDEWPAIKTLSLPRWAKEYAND

B1: F25 (dsDNA)
DNA 1: TAGAGCTTAATTGCTGAATCTGGTG
DNA 2: CACCAGATTCAGCAATTAAGCTCTA
Kd (RecE564 E729A): 57 ± 3 nM
Kd (RecE564 del858-866): 660 ± 80 nM
Kd (RecE564 Y608A): 160 ± 10 nM
Kd (RecE564 F661A): 118 ± 8 nM
Kd (RecE564 Y778A): 130 ± 20 nM
Kd (RecE564 S615A): 100 ± 4 nM
